Assay results from the supplement of paper PMC10567573.
± gives the standard deviation.

Test: protein stability index of a GFP-peptide fusion (GPS, HEK-293T) (PSI 1-6); higher = more stable
Conditions: c terminus: a fixed tail appended
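Also: 24-mer peptide tiles fused after GFP, lentivirally expressed, FACS-sorted into six equal bins by GFP/DsRed ratio, decoded by Illumina sequencing, PSI is the read-weighted mean bin number.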

| Sequence | protein stability index (treatment: DMSO) | protein stability index (treatment: MLN4924 1 uM, 8 h) |
| --- | --- | --- |
| GTLSMGVPQIFKYGETCFPKGRFE [ZNF24] | 2.83 ± 0.11 | 2.56 ± 0.27 |
| HLPWQYHAGQGGLFYSAEVEMLCD [CCDC3] | 2.94 ± 0.44 | 2.52 ± 0.2 |
| EDLATAYNNRGQIKYFRVDFYEAM [TTC32] | 2.21 ± 0.17 | 2.23 ± 0.32 |
| EFLELSPQKLKEVISLEKLNVGNE [GAN] | 3.44 ± 0.61 | 3.09 ± 0.51 |
| KLKDLSTVTSLQVPVLKPMDLMVE [PPP2R2C] | 3.33 ± 0.31 | 3.43 ± 0.27 |
| SLHDHDGSSGASDQDTLAPLPHPG [DVL3] | 5.33 ± 0.25 | 5.19 ± 0.33 |
| VYHIECFRCSVCSRQLLPGDEFSL [ISL2] | 2.34 ± 0.14 | 2.4 ± 0.23 |
| RYAPLSFRNPMMSKLRNYRKDLAK [VTI1B] | 2.76 ± 0.23 | 2.74 ± 0.18 |
| DEEVQRKREMILKRKEEEALKDSL [VDR] | 5.35 ± 0.22 | 5.5 ± 0.19 |
| KGTILKASVDYIRKLQKEQQRSKD [TFE3] | 3.41 ± 0.19 | 3.79 ± 0.38 |
| MNLHVYISEHEHFTDFNATSALFW [CLPTM1] | 2.94 ± 0.5 | 2.79 ± 0.39 |
| KVLQLTVRCEALTGELETLKERCA [CCDC89] | 2.28 ± 0.21 | 2.45 ± 0.27 |
| AADRHINFCKEQAARISNKGKFST [ZC2HC1A] | 2.57 ± 0.28 | 2.85 ± 0.14 |
| QEAVPLGLGLEDADWTQGLPWRFE [TEX19] | 3.34 ± 0.21 | 3.34 ± 0.3 |
| RVAEVSRVRVELQEQNGRLQAELA [LRRC45] | 4.11 ± 0.3 | 4.19 ± 0.13 |
| KIMADIRAQYDELARKNREELDKY [KRT18] | 3.07 ± 0.15 | 3.19 ± 0.35 |
| AQRVRAAMFPETLDEGMQIPSTQF [CTNNB1] | 3.62 ± 0.23 | 3.65 ± 0.16 |
| LRSQLQTLKQQHQQAVEQIAKAEE [CCDC89] | 4.66 ± 0.15 | 4.76 ± 0.11 |
| FLHSLVQFLFIYQLPFCGPNVIDN [OR4A15] | 2.89 ± 0.32 | 3.48 ± 0.26 |
| AFNFLLVWYYCTLTIRESILINNG [TMEM120A] | 2.87 ± 0.055 | 3.15 ± 0.51 |
| ESQSTSLRGSYNSLHDGSDGLDGI [LURAP1L] | 4.91 ± 0.11 | 4.68 ± 0.17 |
| RDRDGRITVAELREAVPALLGEPL [CABP4] | 3.78 ± 0.23 | 3.95 ± 0.35 |

| Sequence | protein stability index (treatment: DMSO) | protein stability index (treatment: MLN4924 1 uM, 8 h) |
| --- | --- | --- |
| EKLKEKLKMKEREEAWVKIENLAK [PPP2R5C] | 2.54 ± 0.6 | 2.48 ± 0.39 |
| GSYNGQIGWFPSNYVLEEVDEAAA [NCK2] | 4.65 ± 0.29 | 4.66 ± 0.36 |
| KQYAMQRPNDDSLAFLDKIKSVKE [IQUB] | 3.64 ± 0.35 | 3.87 ± 0.3 |
| WEPFDWGRLLEALCREEPVVQGPD [FANCE] | 3.001 ± 0.014 | 3.22 ± 0.23 |
| SKLLLSGTADGADLRTVDPETQAR [ANKRD17] | 5.08 ± 0.35 | 5.13 ± 0.26 |
| NKQGHGCESDIWALGCVMYTMLLG [PLK2] | 2.87 ± 0.58 | 2.54 ± 0.064 |
| DHEHEEADLELSLPECLEYEEEFD [GNAS] | 5.55 ± 0.46 | 5.53 ± 0.22 |
| NYIGTKNVIETCKEAGVQKLILTS [NSDHL] | 2.5 ± 0.23 | 2.84 ± 0.44 |
| SDVLIGDILVLLGASLYAISNVCE [SLC35F2] | 2.79 ± 0.28 | 3.36 ± 0.67 |
| VSTRLTVLREDQIPRGFPTIDMGP [PTPRD] | 2.33 ± 0.47 | 2.53 ± 0.18 |
| RSLLLKYARTPTLDPDTMHARLRL [TRIM14] | 2.45 ± 0.35 | 2.37 ± 0.44 |
| PCPLGEPKTQACSGSESPSDSGKD [MYCL] | 5.41 ± 0.24 | 5.41 ± 0.17 |
| GGQRSTPLIIAARNGHAKVVRLLL [FEM1B] | 2.16 ± 0.2 | 2.23 ± 0.44 |
| AAGVDHVILAVSYMSQVLEKEMKA [GMPPB] | 2.25 ± 0.62 | 2.44 ± 0.23 |
| HPAATALHAELCQAGSSQGLSLCQ [LPCAT4] | 4.22 ± 0.29 | 4.13 ± 0.16 |
| LRVSPAEQPRLEFLMRKCGWFVRE [FBXO33] | 1.97 ± 0.12 | 2.08 ± 0.38 |
| AGAGGSGSRISVSRSTSFRGGMGS [KRT18] | 3.88 ± 0.21 | 3.79 ± 0.28 |
| EVGPQEINKEELEGNSMRCGRKLA [GMCL1] | 4.75 ± 0.48 | 4.76 ± 0.3 |
| FDPLPPSDTIYSYVRPERLSPISH [TCF25] | 3.07 ± 0.17 | 3.14 ± 0.42 |
| QNCTDEGEREAIQKSVTRSCLLEE [POP5] | 5.17 ± 0.3 | 5.3 ± 0.33 |
| YERPNVETIKCVVVGDNAVGKTRL [RHOBTB1] | 3.71 ± 0.23 | 3.86 ± 0.21 |
| FHYIPGTDILDLENQRENLEQPFL [PLEKHN1] | 2.92 ± 0.58 | 3.09 ± 0.16 |

| Sequence | protein stability index (treatment: DMSO) | protein stability index (treatment: MLN4924 1 uM, 8 h) |
| --- | --- | --- |
| LEEAKKMEMAKFRYILPVYGICRE [RIPK4] | 2.26 ± 0.23 | 2.33 ± 0.31 |
| SAASGARFPLDSAQDPDVGTNTVS [PCDHGC5] | 5.39 ± 0.12 | 5.2 ± 0.31 |
| TLAQFPETLLGDPEKRTQYFDPLR [KCNA4] | 3.5 ± 0.31 | 3.6 ± 0.36 |
| DIWSTACMAFELATGDYLFEPHSG [SRPK2] | 3.2 ± 0.24 | 3.39 ± 0.47 |
| ESSLGSESEEEEEFYDADEETQMI [SLC22A15] | 5.05 ± 0.24 | 4.88 ± 0.3 |
| RNQGNFSVVGTVLAATQAEKAVAN [ZC2HC1C] | 4.28 ± 0.15 | 4.24 ± 0.42 |
| VEYEERESEFDIEDEDKSEPEQTG [RBBP5] | 5.64 ± 0.23 | 5.54 ± 0.32 |
| GSEAAVIPLDLGCTQVTQDGDIPN [FAM189A2] | 5.05 ± 0.39 | 5.26 ± 0.5 |
| HSLERAGSKQYSAAIAFTLALFSH [SMG5] | 2.48 ± 0.41 | 2.49 ± 0.44 |
| LELLGASFANDRENYDIIKTYHYL [FEM1B] | 2.32 ± 0.43 | 2.17 ± 0.36 |
| VNAKDNMWLTPLHRAVASRSEEAV [ANKRD44] | 4.07 ± 0.29 | 4.02 ± 0.44 |
| AVMEHAESKMYATSPYSDPVVSMD [PTPRD] | 4.3 ± 0.36 | 4.24 ± 0.53 |
| VRDSDSLAESEFESAAFSQGSRSG [PHTF1] | 5.15 ± 0.26 | 5.13 ± 0.28 |
| EEEENRDSQQPGKRRKDSEEEAAS [FANCE] | 5.78 ± 0.21 | 5.73 ± 0.2 |
| ADRIIEVDMECQTDAFLDRPPTPL [RSPH3] | 4.3 ± 0.29 | 4.25 ± 0.28 |
| HNCVDLMQAAEVFSQKHFPEVVQH [KLHL12] | 3.17 ± 0.16 | 3.14 ± 0.38 |
| SVEEQLSLISGCPNIQEAVEGAMH [CRYL1] | 4.68 ± 0.17 | 4.64 ± 0.15 |
| ESQLDPSNCLGIRDFAETHNCVDL [KLHL12] | 3.9 ± 0.45 | 4.26 ± 0.49 |
| HPIEEAAEEHREKLLKQMRILWKK [TRIM43] | 3.45 ± 0.39 | 3.7 ± 0.58 |
| HKKTTHKLNCDPSRIYKPQTRLKR [DFFB] | 4.07 ± 0.28 | 4.22 ± 0.25 |
| DPSGKGKGKAGRVDLVDESGYVSG [TPPP] | 5.1 ± 0.42 | 5.27 ± 0.16 |
